{"source": "patent US6875571B2", "about": "“NF-AT polypeptides and polynucleotides and screening methods for immunosuppressive agents” (The Board of Trustees of the Leland Stanford Junior …, priority 1991, dated 2005)", "molecules": {"B1": {"name": "dominant negative NF-ATc: carboxy terminal truncation of the epitope tagged NF-ATc expression plasmid extending to the PvuII site at amino acid 463 (protein, UniProt Q13469 1-463, looked up, fragment)", "chain": "MNAPERQPQPDGGDAPGHEPGGSPQDELDFSILFDYEYLNPNEEEPNAHKVASPPSGPAYPDDVLDYGLKPYSPLASLSGEPPGRFGEPDRVGPQKFLSAAKPAGASGLSPRIEITPSHELIQAVGPLRMRDAGLLVEQPPLAGVAASPRFTLPVPGFEGYREPLCLSPASSGSSASFISDTFSPYTSPCVSPNNGGPDDLCPQFQNIPAHYSPRTSPIMSPRTSLAEDSCLGRHSPVPRPASRSSSPGAKRRHSCAEALVALPPGASPQRSRSPSPQPSSHVAPQDHGSPAGYPPVAGSAVIMDALNSLATDSPCGIPPKMWKTSPDPSPVSAAPSKAGLPRHIYPAVEFLGPCEQGERRNSAPESILLVPPTWPKPLVPAIPICSIPVTASLPPLEWPLSSQSGSYELRIEVQPKPHHRAHYETEGSRGAVKAPTGGHPVVQLHGYMENKPLGLQIFIGTA", "modifications": "epitope tag"}}, "format_in_all_cases": "cell-based, human", "key": {"[1]": {"tested_on": "RSV promoter and enhancer", "assay": "Secreted alkaline phosphatase reporter in Jurkat Tag cells, RSV reporter", "settings": "transfection, no stimulation", "experimental": "(§1) Jurkat Tag cells were transfected with vector plasmid (control) or with the dominant negative NF-ATc plasmid, plus the indicated secreted alkaline phosphatase reporter plasmid. Transfected cells were transferred to fresh culture medium 24 hours after transfection and secreted alkaline phosphatase activity was measured (Clipstone and Crabtree (1992) Nature 357: 695-698) 16 to 24 hours later, after stimulation with 1 uM ionomycin plus 20 ng/ml PMA (NF-AT and IL-2 reporters), 20 ng/ml PMA alone (AP-1 reporter) or no stimulation (RSV reporter). Bars indicate, secreted alkaline phosphatase activity from cells transfected with the dominant negative NF-ATc as a percentage of the activity from cells transfected in parallel with control plasmid, and represent data obtained from (n) independent transfections. The dominant negative NF-ATc consists of a carboxy terminal truncation of the epitope tagged NF-ATc expression plasmid extending to the PvuII site at amino acid 463.\n(§2) The dominant negative NF-ATc used consists of a carboxy terminal truncation of the epitope tagged NF-ATc expression plasmid (supra) extending to the PvuII site at amino acid 463."}, "AP-1 site": {"tested_on": "AP-1 site", "assay": "Secreted alkaline phosphatase reporter in Jurkat Tag cells, AP-1 reporter", "settings": "transfection, 20 ng/ml PMA alone", "experimental": "as §1, §2"}, "IL-2 promoter": {"tested_on": "IL-2 promoter", "assay": "Secreted alkaline phosphatase reporter in Jurkat Tag cells, IL-2 reporter", "settings": "transfection, 1 uM ionomycin plus 20 ng/ml PMA", "experimental": "as §1, §2"}, "NF-AT site": {"tested_on": "NF-AT site", "assay": "Secreted alkaline phosphatase reporter in Jurkat Tag cells, NF-AT reporter", "settings": "transfection, 1 uM ionomycin plus 20 ng/ml PMA", "experimental": "as §1, §2"}}, "data": [{"molecule": "B1", "values": [{"measurement": "transcription directed by the RSV promoter and enhancer", "setting": "[1]", "result": "relatively unaffected"}, {"measurement": "transcription directed by the AP-1 site", "setting": "AP-1 site", "result": "relatively unaffected"}, {"measurement": "inhibition of IL-2 promoter function", "setting": "IL-2 promoter", "result": "more than 90%"}, {"measurement": "inhibition of transcription directed by the NF-AT site", "setting": "NF-AT site", "result": "more than 90%"}]}]}
